Target: recombinant His-tagged AGO2 (UniProt Q9UKV8)
Test: SPR; Biacore T200; His-AGO2 immobilised on a CM5 chip by amine coupling (~7000 RU); peptides 20 to 1280 nM in HBS-P (10 mM HEPES, 150 mM NaCl, 0.005% T20, pH 7.4), 30 µL/min; Langmuir 1:1 model

Sequence of recombinant His-tagged AGO2 (Q9UKV8 whole entry): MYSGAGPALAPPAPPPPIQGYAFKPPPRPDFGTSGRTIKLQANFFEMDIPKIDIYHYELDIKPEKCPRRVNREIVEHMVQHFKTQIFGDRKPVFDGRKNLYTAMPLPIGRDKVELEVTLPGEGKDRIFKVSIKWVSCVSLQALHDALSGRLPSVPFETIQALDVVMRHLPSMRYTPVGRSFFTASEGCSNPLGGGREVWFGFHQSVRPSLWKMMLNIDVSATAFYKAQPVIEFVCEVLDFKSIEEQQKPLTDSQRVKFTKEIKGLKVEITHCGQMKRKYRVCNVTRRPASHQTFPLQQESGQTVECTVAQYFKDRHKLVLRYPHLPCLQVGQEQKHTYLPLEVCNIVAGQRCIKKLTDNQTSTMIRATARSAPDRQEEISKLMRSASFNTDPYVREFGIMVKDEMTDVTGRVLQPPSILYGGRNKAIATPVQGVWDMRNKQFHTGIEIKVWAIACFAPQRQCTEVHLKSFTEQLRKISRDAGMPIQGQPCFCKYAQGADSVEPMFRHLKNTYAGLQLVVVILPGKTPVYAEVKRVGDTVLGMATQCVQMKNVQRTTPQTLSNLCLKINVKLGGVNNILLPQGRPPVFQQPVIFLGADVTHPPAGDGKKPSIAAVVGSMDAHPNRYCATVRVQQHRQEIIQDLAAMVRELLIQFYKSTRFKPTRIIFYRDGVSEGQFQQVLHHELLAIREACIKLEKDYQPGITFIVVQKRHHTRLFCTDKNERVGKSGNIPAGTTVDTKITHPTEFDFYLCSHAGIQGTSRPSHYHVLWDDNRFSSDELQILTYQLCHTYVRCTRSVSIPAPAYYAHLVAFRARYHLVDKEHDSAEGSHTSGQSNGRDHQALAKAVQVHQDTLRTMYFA

Kd: 107 µM
Substance: negative control peptide (CP) as used in the SPR
